{
  "source": "paper PMC5590664",
  "origin": "cited, not measured here",
  "target": "HIV-1 capsid protein (full-length) (Human immunodeficiency virus 1) (UniProt O93182)",
  "data": [
    {"substance": "HIV-1 capsid protein (full-length) (from UniProt O93182)", "values": [
      {"measurement": "Kd", "value": 40, "unit": "µM"}
    ]}
  ]
}
